Results on four variants are retold here after IntAct's records for PubMed 17161399.

To fix the notation:
B1: Protein VAC14 homolog (Homo sapiens), Q08AM6 (parent)
chain: MNPEKDFAPLTPNIVRALNDKLYEKRKVAALEIEKLVREFVAQNNTVQIKHVIQTLSQEFALSQHPHSRKGGLIGLAACSIALGKDSGLYLKELIEPVLTCFNDADSRLRYYACEALYNIVKVARGAVLPHFNVLFDGLSKLAADPDPNVKSGSELLDRLLKDIVTESNKFDLVSFIPLLRERIYSNNQYARQFIISWILVLESVPDINLLDYLPEILDGLFQILGDNGKEIRKMCEVVLGEFLKEIKKNPSSVKFAEMANILVIHCQTTDDLIQLTAMCWMREFIQLAGRVMLPYSSGILTAVLPCLAYDDRKKSIKEVANVCNQSLMKLVTPEDDELDELRPGQRQAEPTPDDALPKQEGTASGGPDGSCDSSFSSGISVFTAASTERAPVTLHLDGIVQVLNCHLSDTAIGMMTRIAVLKWLYHLYIKTPRKMFRHTDSLFPILLQTLSDESDEVILKDLEVLAEIASSPAGQTDDPGPLDGPDLQASHSELQVPTPGRAGLLNTSGTKGLECSPSTPTMNSYFYKFMINLLKRFSSERKLLEVRGPFIIRQLCLLLNAENIFHSMADILLREEDLKFASTMVHALNTILLTSTELFQLRNQLKDLKTLESQNLFCCLYRSWCHNPVTTVSLCFLTQNYRHAYDLIQKFGDLEVTVDFLAEVDKLVQLIECPIFTYLRLQLLDVKNNPYLIKALYGLLMLLPQSSAFQLLSHRLQCVPNPELLQTEDSLKAAPKSQKADSPSIDYAELLQHFEKVQNKHLEVRHQRSGRGDHLDRRVVL

The first experiment covers variants of B1. Particulars: with nos1_human NOS1, P29475.
Sequence of nos1_human NOS1, P29475 (P29475 whole entry): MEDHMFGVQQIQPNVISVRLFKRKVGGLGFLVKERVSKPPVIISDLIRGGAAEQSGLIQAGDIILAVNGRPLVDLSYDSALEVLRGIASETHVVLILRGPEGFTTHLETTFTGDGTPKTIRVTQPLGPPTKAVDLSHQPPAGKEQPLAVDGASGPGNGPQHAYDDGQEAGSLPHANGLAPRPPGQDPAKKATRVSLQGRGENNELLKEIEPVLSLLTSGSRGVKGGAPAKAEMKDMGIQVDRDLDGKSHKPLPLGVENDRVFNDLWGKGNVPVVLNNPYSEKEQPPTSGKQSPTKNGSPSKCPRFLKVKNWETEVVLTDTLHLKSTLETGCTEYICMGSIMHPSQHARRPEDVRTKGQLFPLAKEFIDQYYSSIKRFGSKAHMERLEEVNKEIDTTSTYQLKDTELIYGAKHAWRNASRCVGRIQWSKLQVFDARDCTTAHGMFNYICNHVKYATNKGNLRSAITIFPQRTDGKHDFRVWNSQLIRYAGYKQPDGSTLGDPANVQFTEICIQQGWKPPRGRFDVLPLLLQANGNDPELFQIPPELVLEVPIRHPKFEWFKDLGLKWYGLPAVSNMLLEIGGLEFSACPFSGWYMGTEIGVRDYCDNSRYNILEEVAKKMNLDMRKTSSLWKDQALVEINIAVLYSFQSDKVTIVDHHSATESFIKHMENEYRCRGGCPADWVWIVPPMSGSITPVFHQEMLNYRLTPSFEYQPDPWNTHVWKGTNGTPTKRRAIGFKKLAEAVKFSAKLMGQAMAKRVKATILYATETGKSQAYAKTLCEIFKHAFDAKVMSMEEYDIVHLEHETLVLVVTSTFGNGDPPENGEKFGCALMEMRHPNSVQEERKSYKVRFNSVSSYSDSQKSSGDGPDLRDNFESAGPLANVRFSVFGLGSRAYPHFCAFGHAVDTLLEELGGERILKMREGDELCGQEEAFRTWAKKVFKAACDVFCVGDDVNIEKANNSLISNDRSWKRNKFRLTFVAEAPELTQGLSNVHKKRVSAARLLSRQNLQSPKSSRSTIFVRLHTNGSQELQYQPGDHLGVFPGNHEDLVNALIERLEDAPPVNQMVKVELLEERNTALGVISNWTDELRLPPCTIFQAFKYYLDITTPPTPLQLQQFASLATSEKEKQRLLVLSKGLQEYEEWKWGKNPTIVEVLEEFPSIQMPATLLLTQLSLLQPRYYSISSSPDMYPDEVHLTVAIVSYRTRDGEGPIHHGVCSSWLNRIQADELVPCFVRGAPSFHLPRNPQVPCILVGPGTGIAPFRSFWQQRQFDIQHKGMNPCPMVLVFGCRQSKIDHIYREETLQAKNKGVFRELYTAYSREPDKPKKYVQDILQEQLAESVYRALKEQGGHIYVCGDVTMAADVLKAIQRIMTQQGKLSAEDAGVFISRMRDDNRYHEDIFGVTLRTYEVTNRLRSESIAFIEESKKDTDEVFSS
For the variant D777A, the “effect of a mutation on the interaction” value was “disrupting interaction”.

The next experiment covers variants of B1. The note with it: with nos1_human NOS1, P29475. This is another data set of the same source.
As to D774A, the “effect of a mutation on the interaction” value is recorded as “disrupting interaction”.

Regarding L776A, the “effect of a mutation on the interaction” value is recorded as “disrupting interaction”.

For G773A, the “effect of a mutation on the interaction” value is given as “decreasing interaction”.
